According to the supplement of paper PMC9170038:

Tested on: K4 kissing-loop RNA reporter
Experiment: apparent KD of K4 kissing-loop reporter; higher = weaker reporter binding
Details: Eterna round: R107; input ligand: FMN 200 uM
Procedure: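 RNA-MaP round R107: designed RNA switches with theophylline, tryptophan, arginine or FMN aptamers are transcribed on-chip within common flanks. They are titrated with a labelled K4 kissing-loop RNA reporter in RNA-MaP buffer (100 mM Tris pH 7.5, 80 mM KCl, 4 mM MgCl2), without ligand or with the indicated ligand. Median apparent KD per design.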
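Note: bound reporter read as fluorescence of individual clusters on recovered sequencing chips by microscopy, with normalized cluster intensities fitted with a binding model.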

Sequence | apparent KD of K4 kissing-loop reporter [nM]
UAUUAAUUGACGGCCGCCACUAUGGUGAUUUAUUUGUUUGAGUGAUGUUUUGAUGUUUGAUUUUGUAGGACCGGGUUAUGUGUUA [pokcmullin] | 962
UGUACCGAGUCAGGAUAUGGCGUCGAAAGACGAAUUCUAGUGAUGUUAGGGAUCUGCGAAAGCAGUCUAGAAGGGACUUGGUACU [FmnBS 26 U36+U68] | 356

Same assay, conditions: Eterna round: R107; input ligand: arginine 13.2 mM

Sequence | apparent KD of K4 kissing-loop reporter [nM]
AGGCACGAGCAAGGAUAUCGAGUAGAGUGAUGUUCUGCCUGGGUUGGCGCGUAAGGGCCUUCCCAGCGAGAAGGUGCUCGUGCCU [#2 Same State - FMN A Attempt #12 (HarryS)] | 681
AGUGAUGUAUGGCGGUUUGUCACUUAAAAUCAGGAUAUAUAAACAAAUAGAAGGGAUGGCGGAGUGAUGUUCCGCCGGCCGCCAU [FMN A Exl V1] | 145
GGUAGCAUGGCGGCCGCCACUGCAAAGCAUAGCUACGGAAACGUAGCUACAGAGUGAUGUUCUGGCAGGACCGGGCCAUGCUACC | 487
AAAUUUUCAAGUGAUACCAGACAUUUCUAUUACAUUAAUAUAGCUAAGUGAUGUUUAGCAGUCCCUUGGCAGCACUAUUUAAUUA [JR_SSTheophyB_Sub014] | 265
GCCGUACGCAUGGAUACCAGCAACCCUGCCAUCCCAGUGAUGUUGGGAGGAACAUUCUCAUGCCCUUGGCAGCCAUGCGUACGGC | 358
GGGCCUCUGGCUGAUACCAGUGAUGCAGGGUCCGAGACAGGGAGUGAUGUUCCCUGCAGCCACCCUUGGCAGCAGUUUAAGUUUG [Exclusion Theophylline B GF 19] | 124
GGAUAGGACAGAGGAUAUCCUGAGGCAAGAAACUUGUCUCAUAAAGGAUGAAUCCUAGUGAUGUUAGGAGAAGGCUGUCCUAUCG [FmnBX 15 - #SwitchBubble #StaticStem #Palindromic] | 58.8
UAUUAAUUGACGGCCGCCACUAUGGUGAUUUAUUUGUUUGAGUGAUGUUUUGAUGUUUGAUUUUGUAGGACCGGGUUAUGUGUUA [pokcmullin] | 738
UGUACCGAGUCAGGAUAUGGCGUCGAAAGACGAAUUCUAGUGAUGUUAGGGAUCUGCGAAAGCAGUCUAGAAGGGACUUGGUACU [FmnBS 26 U36+U68] | 407

Same assay, conditions: Eterna round: R107; input ligand: none

Sequence | apparent KD of K4 kissing-loop reporter [nM]
AGGCACGAGCAAGGAUAUCGAGUAGAGUGAUGUUCUGCCUGGGUUGGCGCGUAAGGGCCUUCCCAGCGAGAAGGUGCUCGUGCCU [#2 Same State - FMN A Attempt #12 (HarryS)] | 939
AGUGAUGUAUGGCGGUUUGUCACUUAAAAUCAGGAUAUAUAAACAAAUAGAAGGGAUGGCGGAGUGAUGUUCCGCCGGCCGCCAU [FMN A Exl V1] | 177
GGUAGCAUGGCGGCCGCCACUGCAAAGCAUAGCUACGGAAACGUAGCUACAGAGUGAUGUUCUGGCAGGACCGGGCCAUGCUACC | 692
AAAUUUUCAAGUGAUACCAGACAUUUCUAUUACAUUAAUAUAGCUAAGUGAUGUUUAGCAGUCCCUUGGCAGCACUAUUUAAUUA [JR_SSTheophyB_Sub014] | 253
GCCGUACGCAUGGAUACCAGCAACCCUGCCAUCCCAGUGAUGUUGGGAGGAACAUUCUCAUGCCCUUGGCAGCCAUGCGUACGGC | 473
GGGCCUCUGGCUGAUACCAGUGAUGCAGGGUCCGAGACAGGGAGUGAUGUUCCCUGCAGCCACCCUUGGCAGCAGUUUAAGUUUG [Exclusion Theophylline B GF 19] | 122
GGAUAGGACAGAGGAUAUCCUGAGGCAAGAAACUUGUCUCAUAAAGGAUGAAUCCUAGUGAUGUUAGGAGAAGGCUGUCCUAUCG [FmnBX 15 - #SwitchBubble #StaticStem #Palindromic] | 88
UAUUAAUUGACGGCCGCCACUAUGGUGAUUUAUUUGUUUGAGUGAUGUUUUGAUGUUUGAUUUUGUAGGACCGGGUUAUGUGUUA [pokcmullin] | 853
UGUACCGAGUCAGGAUAUGGCGUCGAAAGACGAAUUCUAGUGAUGUUAGGGAUCUGCGAAAGCAGUCUAGAAGGGACUUGGUACU [FmnBS 26 U36+U68] | 508

Same assay, conditions: Eterna round: R107; input ligand: theophylline 20 uM

Sequence | apparent KD of K4 kissing-loop reporter [nM]
AGGCACGAGCAAGGAUAUCGAGUAGAGUGAUGUUCUGCCUGGGUUGGCGCGUAAGGGCCUUCCCAGCGAGAAGGUGCUCGUGCCU [#2 Same State - FMN A Attempt #12 (HarryS)] | 677
AGUGAUGUAUGGCGGUUUGUCACUUAAAAUCAGGAUAUAUAAACAAAUAGAAGGGAUGGCGGAGUGAUGUUCCGCCGGCCGCCAU [FMN A Exl V1] | 179
GGUAGCAUGGCGGCCGCCACUGCAAAGCAUAGCUACGGAAACGUAGCUACAGAGUGAUGUUCUGGCAGGACCGGGCCAUGCUACC | 683
AAAUUUUCAAGUGAUACCAGACAUUUCUAUUACAUUAAUAUAGCUAAGUGAUGUUUAGCAGUCCCUUGGCAGCACUAUUUAAUUA [JR_SSTheophyB_Sub014] | 355
GCCGUACGCAUGGAUACCAGCAACCCUGCCAUCCCAGUGAUGUUGGGAGGAACAUUCUCAUGCCCUUGGCAGCCAUGCGUACGGC | 384
GGGCCUCUGGCUGAUACCAGUGAUGCAGGGUCCGAGACAGGGAGUGAUGUUCCCUGCAGCCACCCUUGGCAGCAGUUUAAGUUUG [Exclusion Theophylline B GF 19] | 124
GGAUAGGACAGAGGAUAUCCUGAGGCAAGAAACUUGUCUCAUAAAGGAUGAAUCCUAGUGAUGUUAGGAGAAGGCUGUCCUAUCG [FmnBX 15 - #SwitchBubble #StaticStem #Palindromic] | 104
UAUUAAUUGACGGCCGCCACUAUGGUGAUUUAUUUGUUUGAGUGAUGUUUUGAUGUUUGAUUUUGUAGGACCGGGUUAUGUGUUA [pokcmullin] | 748
UGUACCGAGUCAGGAUAUGGCGUCGAAAGACGAAUUCUAGUGAUGUUAGGGAUCUGCGAAAGCAGUCUAGAAGGGACUUGGUACU [FmnBS 26 U36+U68] | 684

Same assay, conditions: Eterna round: R107; input ligand: tryptophan 2.4 mM

Sequence | apparent KD of K4 kissing-loop reporter [nM]
AGGCACGAGCAAGGAUAUCGAGUAGAGUGAUGUUCUGCCUGGGUUGGCGCGUAAGGGCCUUCCCAGCGAGAAGGUGCUCGUGCCU [#2 Same State - FMN A Attempt #12 (HarryS)] | 660
AGUGAUGUAUGGCGGUUUGUCACUUAAAAUCAGGAUAUAUAAACAAAUAGAAGGGAUGGCGGAGUGAUGUUCCGCCGGCCGCCAU [FMN A Exl V1] | 162
GGUAGCAUGGCGGCCGCCACUGCAAAGCAUAGCUACGGAAACGUAGCUACAGAGUGAUGUUCUGGCAGGACCGGGCCAUGCUACC | 330
AAAUUUUCAAGUGAUACCAGACAUUUCUAUUACAUUAAUAUAGCUAAGUGAUGUUUAGCAGUCCCUUGGCAGCACUAUUUAAUUA [JR_SSTheophyB_Sub014] | 216
GCCGUACGCAUGGAUACCAGCAACCCUGCCAUCCCAGUGAUGUUGGGAGGAACAUUCUCAUGCCCUUGGCAGCCAUGCGUACGGC | 459
GGGCCUCUGGCUGAUACCAGUGAUGCAGGGUCCGAGACAGGGAGUGAUGUUCCCUGCAGCCACCCUUGGCAGCAGUUUAAGUUUG [Exclusion Theophylline B GF 19] | 129
GGAUAGGACAGAGGAUAUCCUGAGGCAAGAAACUUGUCUCAUAAAGGAUGAAUCCUAGUGAUGUUAGGAGAAGGCUGUCCUAUCG [FmnBX 15 - #SwitchBubble #StaticStem #Palindromic] | 71.3
UAUUAAUUGACGGCCGCCACUAUGGUGAUUUAUUUGUUUGAGUGAUGUUUUGAUGUUUGAUUUUGUAGGACCGGGUUAUGUGUUA [pokcmullin] | 680
UGUACCGAGUCAGGAUAUGGCGUCGAAAGACGAAUUCUAGUGAUGUUAGGGAUCUGCGAAAGCAGUCUAGAAGGGACUUGGUACU [FmnBS 26 U36+U68] | 512
